Data published in the supplement of paper PMC7877785.
± gives the uncertainty stated by the source.

Assay: self-splicing fitness, log relative to wild type (ln ratio); higher = more splicing; Tetrahymena group I intron in knt gene, E. coli kanamycin selection, DiMSum; sequences stand for … in CUCUCU…GGAGGGAAAAGUUAUCAGGCAUGCACCUGGUAGCUAGUCUUUAAACCAAUAGAUUGCAUCGGUUUAAAAGGCAAGACCGUCAAAUUGCGGGAAAGGGGUCAACAGCCGUUCAGUACCAAGUCUCAGGGGAAACUUUGAGAUGGCCUUGCAAAGGGUAUGGUAAUAAGCUGACGGACAUGGUCCUAACCACGCAGCCAAGUCCUAAGUCAACAGAUCUUCUGUUGAUAUGGAUGCAGUUCACAGACUAAAUGUCGGUCGGGGAAGAUGUAUUCUUCUCAUAAGAUAUAGUCGGACCUCUCCUUAAUGGGAGCUAGCGGAUGAAGUGAUGCAACACUGGAGCCGCUGGGAACUAAUUUGUAUGCGAAAGUAUAUUGAUUAGUUUUGGAGUACUCGUGGUCG
In short: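 The eight P1ex-region nucleotides of an intron in the knt kanamycin-resistance gene on pET-22b(+) were all randomised and the library put into E. coli BL21(DE3). Six replicate transformations were grown overnight at 37°C or 30°C on LB agar with or without 25 μg/mL kanamycin, together with 100 μg/mL carbenicillin, 50 μM IPTG and 0.2% rhamnose. Colonies were pooled and amplicon-sequenced on an Illumina HiSeq 2500. Fitness from DiMSum is the error-weighted combination of wild-type-normalised replicate fold changes, kanamycin over none.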

Sequence	self-splicing fitness (ln) (30 °C)	self-splicing fitness (ln) (37 °C)
UUUAAGCAAUAUUACGUGUU	-3.32 ± 0.2	-2.57 ± 0.22
UUUAAGCAAUAUUACGUUGA	-2.17 ± 0.23	-1.5 ± 0.2
UUUAAGCAAUAUUACGUUGU	-3.69 ± 0.25	-2.2 ± 0.26
UUUCAGCAAUAUUACGAAAU		-2.26 ± 0.4
UUUCAGCAAUAUUACGACGG	-1.02 ± 0.11	0.205 ± 0.17
UUUCAGCAAUAUUACGAGAA	-1.92 ± 0.37	-1.49 ± 0.24
UUUCAGCAAUAUUACGAGAC	-2.68 ± 0.36	-3.57 ± 0.46
UUUCAGCAAUAUUACGAGAG	-1.8 ± 0.069	-1.91 ± 0.088
UUUCAGCAAUAUUACGAGCU		-1.95 ± 0.5
UUUCAGCAAUAUUACGAUGA	-0.807 ± 0.081	-0.285 ± 0.075
UUUCAGCAAUAUUACGCAUC	-2.79 ± 0.14	-0.623 ± 0.11
UUUCAGCAAUAUUACGCCUC		-1.38 ± 0.41
UUUCAGCAAUAUUACGCGAA	-2.03 ± 0.14	-1.21 ± 0.14
UUUCAGCAAUAUUACGCUAG	-0.789 ± 0.084	-0.5 ± 0.1
UUUCAGCAAUAUUACGCUCG	0.0268 ± 0.097	0.385 ± 0.15
UUUCAGCAAUAUUACGCUUA	-0.378 ± 0.086	0.0227 ± 0.12
UUUCAGCAAUAUUACGGACA	-0.569 ± 0.09	-0.204 ± 0.1
UUUCAGCAAUAUUACGGAUA	-0.515 ± 0.11	-0.565 ± 0.11
UUUCAGCAAUAUUACGGAUU	-1.63 ± 0.083	-0.55 ± 0.097
UUUCAGCAAUAUUACGGCAC	-1.79 ± 0.19	-2.33 ± 0.24
UUUCAGCAAUAUUACGGCGA	-0.344 ± 0.093	0.167 ± 0.13
UUUCAGCAAUAUUACGGCUC	-1.77 ± 0.42	0.0864 ± 0.23

Sequence	self-splicing fitness (ln) (30 °C)	self-splicing fitness (ln) (37 °C)
UUUCAGCAAUAUUACGGUCU	-1.45 ± 0.086	-0.667 ± 0.087
UUUCAGCAAUAUUACGUCUU	-2.52 ± 0.17	-1.36 ± 0.13
UUUCAGCAAUAUUACGUGAC	-2.99 ± 0.22	-1.73 ± 0.48
UUUCAGCAAUAUUACGUUCG	-1.09 ± 0.085	-0.545 ± 0.13
UUUGAGCAAUAUUACGAAAG		-2.49 ± 0.23
UUUGAGCAAUAUUACGAAGG	-3.13 ± 0.34	-1.66 ± 0.31
UUUGAGCAAUAUUACGACAG	-2.8 ± 0.15	-1.81 ± 0.18
UUUGAGCAAUAUUACGAGAU	-3.65 ± 0.42	-3.12 ± 0.37
UUUGAGCAAUAUUACGAUCG	-2.23 ± 0.23	-1.81 ± 0.29
UUUGAGCAAUAUUACGCACG		-1.45 ± 0.42
UUUGAGCAAUAUUACGCAUA		-1.01 ± 0.29
UUUGAGCAAUAUUACGCGAA	-2.96 ± 0.34	-1.71 ± 0.2
UUUGAGCAAUAUUACGGAUU	-3.69 ± 0.25	-2.31 ± 0.2
UUUGAGCAAUAUUACGGUGU		-2.7 ± 0.41
UUUGAGCAAUAUUACGUACU	-3.28 ± 0.43	
UUUGAGCAAUAUUACGUAUA	-2.78 ± 0.3	-2.67 ± 0.36
UUUGAGCAAUAUUACGUCCA		-0.659 ± 0.37
UUUGAGCAAUAUUACGUCCU	-3.03 ± 0.27	-1.77 ± 0.2
UUUGAGCAAUAUUACGUCGA	-2.46 ± 0.2	-0.692 ± 0.24
UUUGAGCAAUAUUACGUUCA		-2.38 ± 0.36
UUUUAGCAAUAUUACGAAUA	-1.26 ± 0.25	-1.04 ± 0.16
UUUUAGCAAUAUUACGAAUU	-3.26 ± 0.38	-1.23 ± 0.29

Sequence	self-splicing fitness (ln) (30 °C)	self-splicing fitness (ln) (37 °C)
UUUUAGCAAUAUUACGAGGA	-1.04 ± 0.17	-1.3 ± 0.21
UUUUAGCAAUAUUACGAGUA	-1.55 ± 0.27	-0.821 ± 0.29
UUUUAGCAAUAUUACGAUAC	-3.18 ± 0.45	
UUUUAGCAAUAUUACGCACG	-0.889 ± 0.13	-0.745 ± 0.17
UUUUAGCAAUAUUACGCGCA	-0.13 ± 0.11	-0.0853 ± 0.12
UUUUAGCAAUAUUACGCGGC		-2.34 ± 0.39
UUUUAGCAAUAUUACGCGUC		-1.23 ± 0.25
UUUUAGCAAUAUUACGGACA	-1.41 ± 0.18	-0.668 ± 0.17
UUUUAGCAAUAUUACGGACG	-0.75 ± 0.2	-0.45 ± 0.2
UUUUAGCAAUAUUACGGCGG	-0.446 ± 0.16	-0.137 ± 0.15
UUUUAGCAAUAUUACGGUAG	-1.6 ± 0.18	-1.74 ± 0.16
UUUUAGCAAUAUUACGGUCA	-1.25 ± 0.17	-0.069 ± 0.13
UUUUAGCAAUAUUACGGUGC	-3.63 ± 0.24	-2.98 ± 0.38
UUUUAGCAAUAUUACGGUUA	-1.54 ± 0.2	0.105 ± 0.13
UUUUAGCAAUAUUACGUAAA	-1.52 ± 0.17	-0.431 ± 0.23
UUUUAGCAAUAUUACGUAGG	-1.99 ± 0.11	-0.229 ± 0.13
UUUUAGCAAUAUUACGUCAG	-3.93 ± 0.47	-0.297 ± 0.27
UUUUAGCAAUAUUACGUCGG	-1.95 ± 0.15	-0.321 ± 0.17
UUUUAGCAAUAUUACGUGGA	-2.5 ± 0.18	-0.992 ± 0.11
UUUUAGCAAUAUUACGUUAA	-2.45 ± 0.37	-2.52 ± 0.48
